Measurements: patent US20230051715A1 (MABWELL THERAPEUTICS, published 2023)
Numbering of substitutions follows the chain as printed. Names and notes keep the numbering of the source. Each block holds one binder with its values, some of them ahead of it.

Key:
[1] = biological target: T1, human C1s mutant M14 (R316H) (human, UniProt P09871 16-688); test: ELISA, plate coated with human C1s mutant M14: R316H, OD450nm
T1 construct: The entry is the mutant itself
T1 sequence: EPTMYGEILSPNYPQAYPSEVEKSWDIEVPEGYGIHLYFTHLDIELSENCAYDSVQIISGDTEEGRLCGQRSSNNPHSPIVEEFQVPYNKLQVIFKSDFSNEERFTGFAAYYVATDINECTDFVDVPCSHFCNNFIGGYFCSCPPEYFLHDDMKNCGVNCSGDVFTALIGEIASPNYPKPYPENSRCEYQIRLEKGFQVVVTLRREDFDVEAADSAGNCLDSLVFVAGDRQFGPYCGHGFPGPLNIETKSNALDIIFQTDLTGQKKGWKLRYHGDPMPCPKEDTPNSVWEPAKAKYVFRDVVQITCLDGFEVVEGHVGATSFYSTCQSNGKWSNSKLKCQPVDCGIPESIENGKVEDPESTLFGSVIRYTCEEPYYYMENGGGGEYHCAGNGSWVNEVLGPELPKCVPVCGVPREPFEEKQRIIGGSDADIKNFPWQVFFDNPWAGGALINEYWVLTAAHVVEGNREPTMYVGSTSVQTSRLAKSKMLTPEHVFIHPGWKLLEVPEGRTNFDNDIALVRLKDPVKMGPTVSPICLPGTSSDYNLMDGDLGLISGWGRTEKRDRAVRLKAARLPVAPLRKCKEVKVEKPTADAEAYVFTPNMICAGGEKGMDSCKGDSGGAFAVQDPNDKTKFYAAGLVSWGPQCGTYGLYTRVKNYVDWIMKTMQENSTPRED
Experimental: (§1) ELISA was carried out by first coating 96-well plates with 200 ng/well of full-length or truncated C1s proteins overnight. The next morning, plates were blocked with SuperBlock T20 blocking buffer (Thermo Scientific 37536) for 1 h with gentle shaking. Then, various concentrations of anti-C1s antibodies diluted in SuperBlock T20 blocking buffer were added to the plates and incubated for 1 h with gentle shaking. Mouse IgG (Sigma-Aldrich 15381) and human IgG1 (BioXCell BP0297) were used as negative controls. The plates were washed before incubating with HRP conjugated secondary antibodies diluted in SuperBlock T20 blocking buffer (goat anti-mouse IgG (H+L) cross-adsorbed secondary antibody HRP (Invitrogen G-21040) or goat anti-human IgG antibody, HRP conjugate (Millipore AP309P)) for 1 h with gentle shaking. At last, the plates were washed and color developed with ELISA liquid HRP substrate (Sigma-Aldrich), followed by stopping the reaction with addition of 1M H₂SO₄ in the same volume as the ELISA liquid substrate. Bound antibody was measured by absorbance at OD₄₅₀ₙₘ.
(§2) Binding of anti-C1s antibodies to mutants M1-M20 of human C1s was measured by ELISA as described in Example 4, and results are shown in FIGS. 6B-6U. All anti-C1s humanized variants including hz2-7(H1L2), hz2-8(H1L2 G80A) and hz2-8(H1L2 G80A/T82A) maintained strong binding properties to the majority (16 out of 20) of C1s mutants including M1 (FIG. 6B), M2 (FIG. 6C), M3 (FIG. 6D). M4 (FIG. 6E), M7 (FIG. 6H), M8 (FIG. 6I), M10 (FIG. 6K), M11 (FIG. 6L), M12 (FIG. 6M), M13 (FIG. 6N), M15 (FIG. 6P), M16 (FIG. 6Q), M17 (FIG. 6R), M18 (FIG. 6S), M19 (FIG. 6T) and M20 (FIG. 6U).

[2] = biological target: T2, human C1s mutant M16 (R368H) (human, UniProt P09871 16-688); test: ELISA, plate coated with human C1s mutant M16: R368H, OD450nm
T2 construct: The entry is the mutant itself
T2 sequence: T1 sequence with H316R, R368H
Experimental: as §1, §2

[3] = biological target: T3, human C1s mutant M10 (D283I & P285A) (human, UniProt P09871 16-688); test: ELISA, plate coated with human C1s mutant M10: D283I, P285A, OD450nm
T3 construct: The entry is the mutant itself
T3 sequence: T1 sequence with D283I, P285A, H316R
Experimental: as §1, §2

- binding result [1]: no binding (tested: 1000 ng/ml (Log 3))
- EC50 [2]: 6 ng/mL
- EC50 [3]: 6 ng/mL
B1: Anti-C1s antibody hz2-7(H1L2) (antibody, V domains shown)
VH: EVQLLESGGGLVQPGGSLRLSCAASGFTFSNYFMNWVRQAPGKGLEWVSEIRLKFTNYATHYADSVKGRFTISRDDSKSTLYLQMNSLRAEDTAVYYCTRDYGSRNGYFDYWGQGTLVTVSS
VL: DIVMTQTPLSLPVTPGEPASISCRSSKSLLHSNGNTFLYWFLQKPGQSPQLLIYRMSNLASGVPDRFSGSGSGTDFTLKISRVEAEDVGVYYCMQHLEYPYTFGGGTKLEIKR
notes: Humanized, human IgG1 / kappa; also called hz2-7(1L2)

- EC50 [1]: 5 ng/mL
- EC50 [2]: 6 ng/mL
- EC50 [3]: 5 ng/mL
B2: Anti-C1s antibody hz2-8 (H1L2 G80A) (antibody, V domains shown)
VH: QVQLVQSGAEVKKPGASVKVSCKASGFNIKEYYMHWVRQAPEQGLEWMGWIDPENADTIYAQKFQGRVTITADTSTNTAYMELSSLRSEDTAVYYCARSRLFFAYWGQGTLVTVSS
VL: DIQMTQSPKSLSASVGDRVTITCRASQDVRTALDWYQQKPGQSPKLLIYSASYRYSGVPSRFSGSGSGTDFTLTISSLQPEDFATYYCQQQYTTPYTFGQGTKLEIKR
notes: Humanized variant with G80A in HC CDR2 (already in the entry), human IgG1 / kappa

- EC50 [1]: 8 ng/mL
- EC50 [2]: 9 ng/mL
- EC50 [3]: 6 ng/mL
B3: Anti-C1s antibody hz2-8 (H1L2 G80A/T82A) (antibody, V domains shown)
VH: B2 VH with T58A
VL: B2 VL
notes: Humanized variant with G80A and T82A in HC CDR2 (already in the entry), human IgG1 / kappa
